Test results as given in patent US20070202544.

Tests used:
[1] = target: HA-tagged C96Y mutant insulin 2 (UniProt P01326)
[2] = target: HA-tagged wild-type insulin 2 (UniProt P01326)

HRD1 (from plasmid HRD1-pCMVSPORT6)
ubiquitination of insulin-2 (IP with anti-HA, immunoblot with anti-Flag for Flag-ubiquitin) [1]: did increase that of C96Y insulin-2
ubiquitination of insulin-2 (IP with anti-HA, immunoblot with anti-Flag for Flag-ubiquitin) [2]: HRD1 expression did not increase the ubiquitination of wild-type insulin-2
